Legend:
[1] = molecular target: TSH (thyroid stimulating hormone) in HISCL (trademark) TSH Calibrators C0 to C5 (Sysmex Corporation) (UniProt P01215); experiment: chemiluminescent sandwich ELISA on D-tamavidin 2-immobilized plate; TSH 2 µIU/mL
[2] = molecular target: TSH (thyroid stimulating hormone) in HISCL (trademark) TSH Calibrators C0 to C5 (Sysmex Corporation) (UniProt P01215); experiment: chemiluminescent sandwich ELISA on D-tamavidin 2-immobilized plate; TSH 0 µIU/mL (blank)
[3] = molecular target: TSH (thyroid stimulating hormone) in HISCL (trademark) TSH Calibrators C0 to C5 (Sysmex Corporation) (UniProt P01215); experiment: chemiluminescent sandwich ELISA on D-streptavidin-immobilized plate; TSH 10 µIU/mL
[4] = molecular target: TSH (thyroid stimulating hormone) in HISCL (trademark) TSH Calibrators C0 to C5 (Sysmex Corporation) (UniProt P01215); experiment: chemiluminescent sandwich ELISA on D-streptavidin-immobilized plate; TSH 120 µIU/mL
[5] = molecular target: TSH (thyroid stimulating hormone) in HISCL (trademark) TSH Calibrators C0 to C5 (Sysmex Corporation) (UniProt P01215); experiment: chemiluminescent sandwich ELISA on D-tamavidin 2-immobilized plate; TSH 50 µIU/mL
[6] = molecular target: TSH (thyroid stimulating hormone) in HISCL (trademark) TSH Calibrators C0 to C5 (Sysmex Corporation) (UniProt P01215); experiment: chemiluminescent sandwich ELISA on D-tamavidin 2-immobilized plate; TSH 200 µIU/mL
[7] = molecular target: TSH (thyroid stimulating hormone) in HISCL (trademark) TSH Calibrators C0 to C5 (Sysmex Corporation) (UniProt P01215); experiment: chemiluminescent sandwich ELISA on D-tamavidin 2-immobilized plate; TSH 120 µIU/mL
[8] = molecular target: TSH (thyroid stimulating hormone) in HISCL (trademark) TSH Calibrators C0 to C5 (Sysmex Corporation) (UniProt P01215); experiment: chemiluminescent sandwich ELISA on D-streptavidin-immobilized plate; TSH 2 µIU/mL
[9] = molecular target: TSH (thyroid stimulating hormone) in HISCL (trademark) TSH Calibrators C0 to C5 (Sysmex Corporation) (UniProt P01215); experiment: chemiluminescent sandwich ELISA on D-tamavidin 2-immobilized plate; TSH 10 µIU/mL
[10] = molecular target: TSH (thyroid stimulating hormone) in HISCL (trademark) TSH Calibrators C0 to C5 (Sysmex Corporation) (UniProt P01215); experiment: chemiluminescent sandwich ELISA on D-streptavidin-immobilized plate; TSH 200 µIU/mL
[11] = molecular target: TSH (thyroid stimulating hormone) in HISCL (trademark) TSH Calibrators C0 to C5 (Sysmex Corporation) (UniProt P01215); experiment: chemiluminescent sandwich ELISA on D-tamavidin 2-immobilized plate; TSH 50 µIU/mL, five samples
[12] = molecular target: TSH (thyroid stimulating hormone) in HISCL (trademark) TSH Calibrators C0 to C5 (Sysmex Corporation) (UniProt P01215); experiment: chemiluminescent sandwich ELISA on D-streptavidin-immobilized plate; TSH 0 µIU/mL (blank)
[13] = molecular target: TSH (thyroid stimulating hormone) in HISCL (trademark) TSH Calibrators C0 to C5 (Sysmex Corporation) (UniProt P01215); experiment: chemiluminescent sandwich ELISA on D-streptavidin-immobilized plate; TSH 50 µIU/mL, five samples
[14] = molecular target: TSH (thyroid stimulating hormone) in HISCL (trademark) TSH Calibrators C0 to C5 (Sysmex Corporation) (UniProt P01215); experiment: chemiluminescent sandwich ELISA on D-streptavidin-immobilized plate; TSH 50 µIU/mL

Chain of TSH (thyroid stimulating hormone) in HISCL (trademark) TSH Calibrators C0 to C5 (Sysmex Corporation) (P01215 25-116, chain 1 of 2): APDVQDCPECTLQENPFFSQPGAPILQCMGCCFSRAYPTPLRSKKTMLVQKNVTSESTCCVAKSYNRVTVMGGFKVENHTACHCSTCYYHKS
Chain of TSH (thyroid stimulating hormone) in HISCL (trademark) TSH Calibrators C0 to C5 (Sysmex Corporation) (P01222 21-132, chain 2 of 2, further chain): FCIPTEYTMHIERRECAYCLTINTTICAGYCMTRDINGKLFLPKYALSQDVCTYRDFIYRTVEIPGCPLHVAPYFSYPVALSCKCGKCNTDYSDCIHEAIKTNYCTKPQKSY

Count value [1]: 35300 count
Count value [2]: 363 count
Count value [3]: 80400 count
Count value [4]: 967000 count
Count value [5]: 700000 count
Count value [6]: 1.58e+06 count
Count value [7]: 1.32e+06 count
Count value [8]: 17300 count
Count value [9]: 150000 count
Count value [10]: 1.26e+06 count
Count value (average of five samples) [11]: 668000 count
Count value [12]: 1010 count
Count value (average of five samples) [13]: 410000 count
Count value [14]: 442000 count
Substance: L-biotin-labeled TSH antibody (thyroid stimulating hormone antibody T2-194, KITAYAMA LABES CO., LTD., labeled with L-biotin-AC5-OSu)

From patent US20230288411A1, “POLYPEPTIDE, MULTIMER, SOLID PHASE, MEASUREMENT METHOD FOR TEST SUBSTANCE, AND REAGENT KIT” (SYSMEX CORPORATION, priority 2020, published 2023)
